This is an account of results in paper PMC11853024.

In assay [1] the target is equine LH/chorionic gonadotropin receptor from pVSVG-eLH/CGR (pCORON1000 SP VSV-G), in HEK 293 cells (equine).
In assay [2] the target is rat FSH receptor (rFSHR), in CHO-K1 cells (rat) (UniProt P20395).
In assay [3] the target is rat LH/chorionic gonadotropin receptor (rLH/CGR), in CHO-K1 cells (rat) (UniProt P16235).
The target in assay [4] is equine LH/chorionic gonadotropin receptor (eLH/CGR), in CHO-K1 cells (equine).

UniProt P20395, sequence (P20395 18-692): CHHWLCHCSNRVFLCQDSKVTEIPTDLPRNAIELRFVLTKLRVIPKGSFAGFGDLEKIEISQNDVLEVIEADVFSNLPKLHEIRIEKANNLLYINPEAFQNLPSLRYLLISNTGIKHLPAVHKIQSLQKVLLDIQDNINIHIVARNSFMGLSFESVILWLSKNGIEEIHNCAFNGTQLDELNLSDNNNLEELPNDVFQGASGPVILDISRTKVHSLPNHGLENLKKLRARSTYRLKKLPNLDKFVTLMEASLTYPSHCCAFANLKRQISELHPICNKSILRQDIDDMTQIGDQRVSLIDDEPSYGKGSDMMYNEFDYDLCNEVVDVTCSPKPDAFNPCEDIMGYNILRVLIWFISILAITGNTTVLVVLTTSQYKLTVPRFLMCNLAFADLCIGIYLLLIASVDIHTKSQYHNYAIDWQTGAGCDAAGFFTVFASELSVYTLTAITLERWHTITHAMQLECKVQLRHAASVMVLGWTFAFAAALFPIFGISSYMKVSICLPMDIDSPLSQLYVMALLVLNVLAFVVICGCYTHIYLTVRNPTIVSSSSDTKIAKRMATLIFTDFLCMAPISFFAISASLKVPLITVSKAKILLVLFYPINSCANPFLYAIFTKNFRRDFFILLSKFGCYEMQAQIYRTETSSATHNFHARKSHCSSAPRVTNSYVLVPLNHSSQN
UniProt P16235, sequence (P16235 27-700): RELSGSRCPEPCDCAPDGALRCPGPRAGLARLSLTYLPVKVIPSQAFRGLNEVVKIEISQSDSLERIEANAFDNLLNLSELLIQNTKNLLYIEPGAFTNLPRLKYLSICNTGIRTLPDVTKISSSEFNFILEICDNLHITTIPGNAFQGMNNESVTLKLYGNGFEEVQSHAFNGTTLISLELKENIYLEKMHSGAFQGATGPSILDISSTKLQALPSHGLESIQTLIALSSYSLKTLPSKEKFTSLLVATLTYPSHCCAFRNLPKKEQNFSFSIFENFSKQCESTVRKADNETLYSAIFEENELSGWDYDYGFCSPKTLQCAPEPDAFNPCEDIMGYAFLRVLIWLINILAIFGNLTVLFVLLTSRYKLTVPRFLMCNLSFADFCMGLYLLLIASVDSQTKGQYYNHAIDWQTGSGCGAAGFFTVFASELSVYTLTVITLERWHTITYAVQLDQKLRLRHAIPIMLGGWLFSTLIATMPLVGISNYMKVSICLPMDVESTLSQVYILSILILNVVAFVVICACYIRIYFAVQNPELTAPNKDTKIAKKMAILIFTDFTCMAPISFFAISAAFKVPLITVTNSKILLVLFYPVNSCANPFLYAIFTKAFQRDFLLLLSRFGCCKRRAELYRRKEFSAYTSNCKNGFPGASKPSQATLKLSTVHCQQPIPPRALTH

The substance “single-chain recombinant equine chorionic gonadotropin β/α (rec-eCG β/α) (from UniProt P08751 21-169) (ligand)” gave a pERK1/2 activation (HTRF) in HEK 293 cells expressing eLH/CGR, 50 and 250 ng/mL rec-eCG, 0 to 30 min, fold over basal activity in assay [1] of 7.8 fold. Besides, the cAMP production (HTRF) in CHO-K1 cells expressing rFSHR, 30 min with rec-eCG: EC50 in assay [2] came to 0.1 ng/mL. In addition, the cAMP production (HTRF) in CHO-K1 cells expressing rLH/CGR, 30 min with rec-eCG: EC50 in assay [3] turned out to be 0.03 ng/mL. Further, the cAMP production (HTRF) in CHO-K1 cells expressing eLH/CGR, 30 min with rec-eCG: EC50 in assay [4] was found to be 0.2 ng/mL.
